pKd: −log10 of the molar value.

This test concerns the target recombinant collagen α1(XI) amino terminal domain (NTD) (UniProt P20909). In words: SPR. A general note: In SPR one partner is held on a chip, and binding of the other changes the refractive index at the surface.
UniProt P20909, sequence (P20909 35-1561): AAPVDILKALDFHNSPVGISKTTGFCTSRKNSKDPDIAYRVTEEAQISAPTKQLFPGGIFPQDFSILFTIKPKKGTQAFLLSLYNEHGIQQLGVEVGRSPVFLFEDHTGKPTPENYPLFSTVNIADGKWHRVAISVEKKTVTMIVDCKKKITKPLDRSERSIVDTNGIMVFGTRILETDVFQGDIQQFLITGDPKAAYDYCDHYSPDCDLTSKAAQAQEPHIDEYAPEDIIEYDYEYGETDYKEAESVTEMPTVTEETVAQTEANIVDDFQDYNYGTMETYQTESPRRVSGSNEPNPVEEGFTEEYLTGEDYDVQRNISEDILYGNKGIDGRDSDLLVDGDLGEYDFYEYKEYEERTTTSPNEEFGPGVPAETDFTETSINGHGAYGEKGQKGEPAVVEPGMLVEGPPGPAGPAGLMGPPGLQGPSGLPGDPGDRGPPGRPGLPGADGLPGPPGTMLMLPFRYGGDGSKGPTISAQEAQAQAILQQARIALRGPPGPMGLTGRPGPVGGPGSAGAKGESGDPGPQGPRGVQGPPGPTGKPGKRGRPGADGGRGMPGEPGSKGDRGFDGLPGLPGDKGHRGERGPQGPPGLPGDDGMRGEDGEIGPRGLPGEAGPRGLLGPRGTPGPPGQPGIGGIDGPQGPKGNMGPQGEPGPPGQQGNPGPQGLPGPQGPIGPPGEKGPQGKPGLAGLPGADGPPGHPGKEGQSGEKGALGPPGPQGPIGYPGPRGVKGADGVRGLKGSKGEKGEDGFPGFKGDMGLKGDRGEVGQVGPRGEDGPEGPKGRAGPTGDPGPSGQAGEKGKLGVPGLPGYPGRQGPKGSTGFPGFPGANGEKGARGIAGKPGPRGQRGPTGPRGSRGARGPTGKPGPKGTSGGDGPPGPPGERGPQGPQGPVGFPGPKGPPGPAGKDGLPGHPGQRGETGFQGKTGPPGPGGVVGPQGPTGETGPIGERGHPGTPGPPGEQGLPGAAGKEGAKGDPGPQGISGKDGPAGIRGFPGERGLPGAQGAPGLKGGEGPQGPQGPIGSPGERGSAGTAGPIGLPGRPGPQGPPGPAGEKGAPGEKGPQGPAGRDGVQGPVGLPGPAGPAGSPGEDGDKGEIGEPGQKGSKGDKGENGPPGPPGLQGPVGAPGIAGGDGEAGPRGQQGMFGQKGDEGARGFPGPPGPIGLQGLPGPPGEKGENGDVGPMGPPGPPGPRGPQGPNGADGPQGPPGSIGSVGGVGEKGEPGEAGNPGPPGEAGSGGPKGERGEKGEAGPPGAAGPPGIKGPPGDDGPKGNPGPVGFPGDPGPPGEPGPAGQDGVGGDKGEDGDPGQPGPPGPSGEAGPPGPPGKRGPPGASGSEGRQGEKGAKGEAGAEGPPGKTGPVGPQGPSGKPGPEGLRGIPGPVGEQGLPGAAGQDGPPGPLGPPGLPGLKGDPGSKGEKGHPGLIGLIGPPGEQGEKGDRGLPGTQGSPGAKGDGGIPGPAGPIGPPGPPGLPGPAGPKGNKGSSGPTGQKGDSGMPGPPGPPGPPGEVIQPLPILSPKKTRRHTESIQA

With “Thrombospondin 1 (R&D Systems) (from UniProt P07996 19-1170) (natural protein)”, the pKd (commonly the negative decadic logarithm of the Kd, by convention in mol/L) was 7.00.

(Values after PMC3463621.)
